Laboratory results: patent US20060074049A1, “Use of heparinoids for treatment and prevention of dementia” (priority 2004, published 2006)

Test system: human NPC
Test: Plating assay: NPC colony formation / quiescence
Format: cell-based
Settings: fraction less than 30,000 Da after size-exclusion column
Method: Cells and Materials: Normal human NPC were obtained from Clonetics Corp (San Diego, Calif.), and grown in neural progenitor maintenance medium (Clonetics) with human recombinant basic fibroblast growth factor, epidermal growth factor, neural survival factors and antibiotics. These cells were derived as described previously (Svendsen (1998) J. Neurosci. Meth. 85:141-152).
Plating Assay: On day 0, HIV coat proteins at a concentration of 800 pM, or CSF at a concentration of 2% was added to cultures of NPC. Each protein or CSF sample was tested in triplicate. Cultures were incubated for seven days, and then cells were plated onto 24 well polyethylene-imine coated plates. The number of cell colonies having more than 20 cells with typical neuronal morphology was counted for each well after 7 days in culture. Determinations of colony inhibition for all proteins and CSF samples were done on each of three different lots of NPC. […]
The ability of HIV coat proteins to induce quiescence in human NPC was tested using NPC in the form of neurospheres. […] The number of colonies containing more than 20 cells with typical neuronal morphology was counted after 7 days in culture. […] None of the coat proteins induced cell death in NPC, as determined by trypan blue staining (>95% viability in all coat-protein treated cultures). […]

B1: RANTES: inflammatory chemokine (protein, UniProt P13501 24-91, looked up)
C-C motif chemokine 5: SPYSSDTTPCCFAYIARPLPRAHIKEYFYTSGKCSNPAVVFVTRKNRQVCANPEKKWVREYINSLEMS
Q: Which “effect on NPC in the plating assay” value does the source give for B1 here?
A: inhibit NPC
